Laboratory results published in patent publication US7919091B2, “Lipolysis stimulated receptor (LSR) specific antibodies” (Serono Genetics Institute S.A., priority 1997, dated 2011).

Legend:
[1] = Postprandial lipemic response in mice after a high-fat meal; format: in vivo; settings: 50 μg leptin i.v. with test meal; ob/ob, db/db and control mice
Protocol: Control, ob/ob and db/db mice, starved since the day before, are force-fed with a meal which is very high in fat [60% fat (37% saturated, 27% monounsaturated and 36% polyunsaturated fatty acids), 20% protein and 20% carbohydrate] providing 56 kcal of energy/kg of the weight of the animal. Immediately after the meal (time=0 hour), the mice are injected intravenously with 200 μl of physiological saline solution. At various times, 20 μl of blood are collected via the caudal vein in tubes containing 90 μg of disodium EDTA, and after separating the plasma by centrifugation, the plasma concentration of triglyceridemia is determined with the aid of an enzymatic assay kit. Each point on the curves presented corresponds to the mean with standard deviation obtained for 3 measurements per animal and for 3 different animals.
The procedure is the same as above, except that immediately after the meal (time=0 hour), the mice are injected intravenously with either 200 μl of physiological saline solution, or 200 μl of the same solution containing 50 μg of murine recombinant leptin.
ob/ob mice, starved since the day before, are force-fed with a meal identical to that described above. […] Blood is collected between 2 and 3 hours after the meal and the plasma concentration of triglycerides (TG) is measured. […]

LSR receptors [2] = test system: LSR receptors; design: species or system mice; settings: mouse
Protocol: The apparent number of LSR receptors on plasma membranes is measured as previously described (Mann et al., 1995) by estimating the quantity of LDL bound to a plasma membrane preparation. The plasma membranes (100 μg) are incubated with 1 mM oleate; they are then washed three times as indicated above, and then incubated for 1 hour at 37° C. with 40 μg/ml of ^125I-LDL. The quantity of ^125I-LDL bound to the plasma membranes is then determined by counting. The mean is established on 3 measurements per animal for 3 different animals in each of the groups.

[3] = Long-term treatment with leptin on ob/ob mice: weight and postprandial lipemic response; format: in vivo
Protocol: (§1) The ob/ob obese mice received a daily injection of either leptin, or of an equivalent volume of sterile PBS, for 30 days. The injected doses are 50 μg/animal from day 0 to day 4, 100 μg/animal from day 5 to day 17, and 150 μg/animal from day 18 to day 30. Several parameters indicated below are measured: • the weight (FIG. 29 A): the change in weight is measured for 6 animals, over the duration of the treatment; • the postprandial lipemic response (FIG. 29 B): it is measured according to the protocol detailed in Example 5 on three animals in each group, on day 29; • the apparent number of LSR receptors (FIG. 29 C): it is measured according to the protocol detailed in Example 4 on three animals in each group, on day 30; • the quantity of LSR mRNA ([…]): it is estimated by Northern blotting as indicated in the protocol of Example 2.

LSR = target: T1, LSR (Rattus norvegicus, UniProt Q9WU74); experiment: LSR activity of binding, internalization and degradation of lipoproteins in the presence of leptin, rat hepatocytes; format: cell-based; settings: increasing concentrations of leptin, difference with/without 500 μM oleate
T1 construct: from tissue; host or cells: rat liver plasma membranes / solubilized rat liver membrane proteins
T1 sequence (Q9WU74 36-593): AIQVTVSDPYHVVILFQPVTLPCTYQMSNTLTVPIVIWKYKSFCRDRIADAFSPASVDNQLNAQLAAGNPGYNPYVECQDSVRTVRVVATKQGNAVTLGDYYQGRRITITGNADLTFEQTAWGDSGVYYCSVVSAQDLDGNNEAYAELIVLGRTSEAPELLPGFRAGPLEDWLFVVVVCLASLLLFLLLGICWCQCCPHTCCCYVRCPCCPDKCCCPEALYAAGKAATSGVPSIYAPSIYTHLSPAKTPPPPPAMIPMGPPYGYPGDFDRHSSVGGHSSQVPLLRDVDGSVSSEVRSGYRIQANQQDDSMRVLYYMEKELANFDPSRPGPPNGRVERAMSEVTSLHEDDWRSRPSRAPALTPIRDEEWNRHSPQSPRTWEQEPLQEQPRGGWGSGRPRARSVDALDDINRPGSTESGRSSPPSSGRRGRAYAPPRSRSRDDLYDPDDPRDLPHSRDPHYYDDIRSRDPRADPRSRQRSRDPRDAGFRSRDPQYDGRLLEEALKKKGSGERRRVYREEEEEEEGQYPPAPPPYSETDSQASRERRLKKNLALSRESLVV
T1 sequence (Q9WU74 36-525 isoform Q9WU74-3 limits assumed): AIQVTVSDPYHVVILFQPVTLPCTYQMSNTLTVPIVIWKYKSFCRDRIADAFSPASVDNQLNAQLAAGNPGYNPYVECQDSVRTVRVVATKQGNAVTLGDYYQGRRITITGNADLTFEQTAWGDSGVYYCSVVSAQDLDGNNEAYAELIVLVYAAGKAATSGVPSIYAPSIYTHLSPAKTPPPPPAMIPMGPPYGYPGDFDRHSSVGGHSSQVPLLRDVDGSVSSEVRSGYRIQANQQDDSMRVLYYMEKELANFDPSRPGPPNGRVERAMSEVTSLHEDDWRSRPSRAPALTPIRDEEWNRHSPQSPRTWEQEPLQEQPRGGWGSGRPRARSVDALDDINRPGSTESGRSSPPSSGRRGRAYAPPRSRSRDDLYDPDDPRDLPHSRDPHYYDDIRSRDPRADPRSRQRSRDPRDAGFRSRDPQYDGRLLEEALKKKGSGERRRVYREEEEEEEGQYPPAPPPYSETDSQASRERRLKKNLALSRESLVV
Protocol: Rat hepatocytes in primary culture are incubated at 37° C. for 30 min with an increasing concentration of leptin, and then incubated at 37° C. for 4 hours with either 50 μg/ml of ^125I-LDL (specific activity: 209 cpm/ng) or 50 μg/ml of ^125I-VLDL (specific activity: 157 cpm/ng) in the absence or in the presence of 500 μM oleate. The cells are then washed and the quantities of ^125I-lipoproteins bound, incorporated and degraded are measured as described above in Example 1 (Bihain and Yen, 1992). The results shown in FIG. 23 represent the differences obtained between the cells incubated with or without oleate. Each point represents the mean of 3 measurements. The standard deviation for each point is included in the symbol.

LSR receptors [4] = experiment: Long-term treatment with leptin on ob/ob mice: LSR receptor number and LSR mRNA; format: in vivo
Protocol: as §1

B1: leptin: mouse recombinant leptin with hexahistidine end, expressed in E. coli (protein, UniProt P41160 22-167, looked up)
Leptin: VPIQKVQDDTKTLIKTIVTRINDISHTQSVSAKQRVTGLDFIPGLHPILSLSKMDQTLAVYQQVLTSLPSQNVLQIANDLENLRDLLHLLAFSKSCSLPQTSGLQKPESLDGVLEASLYSTEVVALSRLQGSLQDILQQLDVSPEC
modifications: hexahistidine tag
notes: mouse recombinant leptin with hexahistidine end, expressed in E. coli
Question: Which results are given for B1?
Answer: postprandial lipemic response (plasma triglycerides) [1]: reduce; apparent number of LSR receptors expressed at the surface of the hepatocytes in vivo (LSR receptors [2]): increase; weight ([3]; daily leptin injection over 30 days): very significant loss of weight; postprandial lipemic response ([3]; day 29 of leptin treatment): clear reduction; binding, internalization and degradation of VLDLs and LDLs (LSR): increases; apparent number of LSR receptors at the surface of the cells (LSR receptors [4]; day 30 of leptin treatment): increase; quantity of mRNA encoding the subunits of the LSR receptor (LSR receptors [4]; leptin 30 days, Northern blotting of liver RNA): increase
